The results in this text go back to patent US8273357B2, “Antigen-carbohydrate conjugates” (Massachusetts Institute of Technology, priority 2004, dated 2012).

The subject of experiment [1] is CD11c+ dendritic cells / OTII T cells. In words: Antigen presentation assay, purified CD11c+ dendritic cells and purified OTII T cells. Format: cell-based, mouse. On the procedure:
FIGS. 4A, 4B, 4C and 4D are graphs showing that CD11c^+ dendritic cells are the main antigen presenting cells presenting 3-1-targeted antigen. […] 1.5×10^4 Splenic CD11c^+ dendritic cells purified from C57BL/6 mice and 3.0×10^4 purified OTII T cells were incubated with OVA (starting concentration 300 μg mL^−1) or (OVA)-3-1 (starting concentration 25 μg mL^−1) in graded doses for eight-four hours with [^3H]thymidine (1 μCi) added for the last twelve hours. […] Purified CD11c^+ dendritic cells and OTII T cells were incubated with (OVA)-3-1 (25 μg mL^−1)±each potential inhibitor (100 μg mL^−1). T cell proliferation was determined as for FIG. 4A. […] CD11c^+ dendritic cells and OTII T cells were incubated with OVA or (OVA)-3-1±lipopolysaccharide ([…]). Also included are all ‘non-dendritic cells’ (macrophages and B cells) obtained during the purification of the dendritic cells. T cell proliferation was determined as described in FIG. 4A. […] Supernatants from cells described in FIG. 4C were collected at forty-eight and seventy-two hours and measured for IFN-γ by ELISA; the values presented are from the seventy-two hour time point. All measurements here were performed in triplicate.
To confirm that the increased T cell proliferation observed with (OVA)-3-1 was due to the selective uptake of this conjugate by dendritic cells and not B cells or macrophages, purified CD11c^+ dendritic cells were prepared from wild-type C57BL/6 mice and the OVA-specific T cells from transgenic OTII mice (see Materials & Methods). The in vitro antigen presentation assays described above were then repeated. […] By comparison, >50-fold more unmodified OVA was required to obtain similar levels of T cell proliferation. When B cells and macrophages were used as antigen-presenting cells in place of purified dendritic cells, the resulting T cell responses were negligible (FIG. 4C), providing strong confirmation that CD11c^+ dendritic cells are the main antigen-presenting cells mediating uptake and presentation of (OVA)-3-1 to OTII T cells.
Pooled inguinal lymph nodes were dissociated in 10% Fetal Bovine Serum RPMI (supplemented with 2 mM L-glutamine) and either mechanically dissociated between two glass slides or, to improve the overall cell yield, incubated in the presence of collagenase (Boehringer) and EDTA for 25 minutes at 37° C./5% CO2 to dissociate DC-T cell clusters. For antigen presentation assays with whole splenocytes, isolated spleens were injected with collagenase/EDTA, gently teased apart and incubated as described above. Splenocytes were cultured in 96-well round-bottom plates at a density of 3×10^5 cells/0.2 mL. In antigen presentation assays utilizing purified dendritic cells and T cells, dendritic cells were isolated from the spleens of C57BL/6 mice following collagenase/EDTA treatment by labeling the dendritic cells with commercially available magnetic microbeads linked to an anti-CD11c^+ antibody (Miltenyi Biotec, Bergisch Gladbach, Germany) (according to the Miltenyi Biotec protocol) and separating labeled Dendritic cells from non-dendritic cells by application of a magnetic field. Similarly, purified […] T cells were obtained from spleens of OTII transgenic mice using magnetic beads Dynal (Oslo, Norway). Purified dendritic cells and T cells were seeded onto 96-well plates round-bottom Plates at a 1:2 DC:T cell ratio unless stated otherwise in the Figures.

Experiment [2] has as its system OTII T cells. Briefly: Adoptive transfer of CFSE-labeled OTII cells, immunization with CFA or mBSA, cell number and CFSE dilution. The following applies: for T cells that had undergone cell division: antigen 50 ng ± mBSA 50 μg subcutaneous, CFSE. In kind it is in vivo, mouse. Here is the method: FIGS. 7A and 7B are a series of dot plots showing that inflammatory stimuli dampen the effects of DC targeting by (OVA)-3-1. FIG. 7A includes two dot plots showing the 5-(6)-carboxyfluorescein diacetate succinimidyl ester (CFSE), a cell-permeable dye, intensity present in a population of cells. 2×10^7 CFSE-labeled OTII splenocytes were adoptively transferred to B6.Ly5.2/Cr recipients and the mice were immunized subcutaneously with OVA (200 ng) or (OVA)-3-1 (200 ng) emulsified in Complete Freund's Adjuvant. At seventy-two hours post immunization the draining inguinal lymph nodes were isolated and the expansion of CD45.2^+Vα2^+ was evaluated for CFSE dilution by flow cytometry. 4×10^5 total counts were collected. The plots display the CFSE intensity associated with the gated population of Vα2^+CD45.2^+ donor cells. The numbers indicate the percentage of CFSE high (undivided; R3 gate) and CFSE low (divided; R4 gate) OTII T cells. FIG. 7B is a series of five dot plots showing the enhancement in T cell proliferation promoted by neoglycoprotein mBSA. CFSE-labeled OTII splenocytes were adoptively transferred as in (A) and mice were immunized subcutaneously with mBSA (50 μg); OVA (50 ng); (OVA)-3-1 (50 ng); OVA (50 ng)+mBSA (50 μg) or (OVA)-3-1 (50 ng)+mBSA (50 μg). At 3 days the mice were sacrificed and isolated cells were analyzed as described in (A). Both FIGS. 7A and 7B are results from one of two separate experiments.
These cytokines aid in the recruitment and activation of monocytes and dendritic cells at the site of administration, thereby promoting a heightened immune response. […] Prior to transferring the CD45.2 OTII T cells to the B6.Ly5.2/Cr recipients, the cells were stained with 5-(6)-carboxyfluorescein diacetate succinimidyl ester (CFSE), a cell-permeable dye that freely crosses the cell membrane; once inside the cell, however, cellular esterases hydrolyze the CFSE's ester functional groups to generate a negatively charged molecule that cannot cross back across the cell membrane. This dye is used to monitor cell division by flow cytometry as each successive cell division leads to a dilution of CFSE among the daughter cells.
To administer pro-inflammatory stimuli at the same time as soluble antigen, OVA and (OVA)-3-1 were emulsified in Complete Freund's Adjuvant (CFA) prior to immunization. CFA is an oil-based mixture of mycobacterial cell wall components that is known to induce strong TH1 T cell responses^2. Seventy-two hours after immunization, cells from the draining lymph nodes were isolated and analyzed by flow cytometry for cell number and divisions (FIG. 7A). […] In fact, the enhancement previously observed relative to soluble OVA (FIG. 6B) was largely diminished. […] Without being tied to one particular theory, one potential reason for this observation could be that dendritic cells targeted with (OVA)-3-1 produced more peptide-MHC class II complexes than those targeted by OVA as receptor-mediated endocytosis delivered more antigen to the cell before full maturation was reached^10.
Since most lectins have weak affinities for monosaccharides, these experiments were repeated with BSA that was modified with approximately 25 mannose residues per protein molecule (mBSA). […] Mice that had received CFSE-labeled OTH T cells were immunized with mBSA, OVA, (OVA)-3-1, OVA plus mBSA, or (OVA)-3-1 plus mBSA and their T cell responses were analyzed at seventy-two hours (FIG. 7B). […]

[3] abbreviates: purified CD11c+ dendritic cells and OTII T cells.

Values joined by “and” are separate entries in the source; they are usually repeats but may differ in a detail not shown here. Equal values may be shown once. “Also recorded” adds a separate entry of the source.

For “mBSA: BSA modified with approximately 25 mannose residues per protein molecule [reference compound]”, the “inhibitory effect on (OVA)-3-1 presentation by dendritic cells” value in experiment [1] ((OVA)-3-1 25 μg mL^−1, inhibitor 100 μg mL^−1) is given as “Neither mBSA nor Lewis^x-BSA were inhibitory”. Further, the “OTII T cell proliferation after immunization with mBSA alone” value in experiment [2] (mBSA 50 μg subcutaneous, 72 h) was “did not proliferate”.

B1: (OVA)-3-1: ovalbumin modified via SMCC with nonasaccharide 3-1, average of three saccharides per OVA (conjugate)
chain: GSIGAASMEFCFDVFKELKVHHANENIFYCPIAIMSALAMVYLGAKDSTRTQINKVVRFDKLPGFGDSIEAQCGTSVNVHSSLRDILNQITKPNDVYSFSLASRLYAEERYPILPEYLQCVKELYRGGLEPINFQTAADQARELINSWVESQTNGIIRNVLQPSSVDSQTAMVLVNAIVFKGLWEKAFKDEDTQAMPFRVTEQESKPVQMMYQIGLFRVASMASEKMKILELPFASGTMSMLVLLPDEVSGLEQLESIINFEKLTEWTSSNVMEERKIKVYLPRMKMEEKYNLTSVLMAMGITDVFSSSANLSGISSAESLKISQAVHAAHAEINEAGREVVGSAEAGVDAASVSEEFRADHPFLFCIKHIATNAVLFFGRCVSP
For the molecule B1, the “capture and presentation by purified CD11c+ dendritic cells to OTII T cells compared to soluble OVA” value in experiment [1] (parallel titration series) is “highly efficient; also recorded: efficiently present”. Moreover, in experiment [1] (plus lipopolysaccharide (LPS)), the “decrease in presentation to OTII T cells as a result of TLR-mediated dendritic cell maturation” value came out at 60% and the “presentation to T cells upon TLR-4 stimulation” value is “remained better than targeting by unmodified OVA; also recorded: significantly decreased”. The “low concentration at which capture and presentation was still highly efficient” value in experiment [1] (setting [3]) is 16 nM. Also, the “increase in OTII T cell number compared to OVA” value in experiment [2] (50 ng subcutaneous, 72 h) was 2 fold. In addition, in experiment [2] (72 h), the “T cells that had undergone cell division” value was 58% and 55%. In addition, in experiment [2] (in vivo immunization), the “enhancement of T cell activation / proliferation relative to OVA in saline” value came to 2 fold.

B2: ovalbumin (protein, UniProt P01012 2-386, looked up)
Ovalbumin: GSIGAASMEFCFDVFKELKVHHANENIFYCPIAIMSALAMVYLGAKDSTRTQINKVVRFDKLPGFGDSIEAQCGTSVNVHSSLRDILNQITKPNDVYSFSLASRLYAEERYPILPEYLQCVKELYRGGLEPINFQTAADQARELINSWVESQTNGIIRNVLQPSSVDSQTAMVLVNAIVFKGLWEKAFKDEDTQAMPFRVTEQESKPVQMMYQIGLFRVASMASEKMKILELPFASGTMSMLVLLPDEVSGLEQLESIINFEKLTEWTSSNVMEERKIKVYLPRMKMEEKYNLTSVLMAMGITDVFSSSANLSGISSAESLKISQAVHAAHAEINEAGREVVGSAEAGVDAASVSEEFRADHPFLFCIKHIATNAVLFFGRCVSP
notes: model antigen, unmodified
Turning to B2, the “decrease in presentation to OTII T cells as a result of TLR-mediated dendritic cell maturation” value in experiment [1] (plus lipopolysaccharide (LPS)) is 30%. Besides, the “excess of unmodified OVA required to obtain levels of T cell proliferation similar to (OVA)-3-1” value in experiment [1] (setting [3]) was above 50 fold. Besides, the “T cells that had undergone cell division” value in experiment [2] (72 h) worked out at 33%.
